# Substitutions are numbered along the chain they refer to. In names and notes the source's numbering stands.
# B1: v34913 (trispecific antibody, human IgG1, kappa, L234A L235A)
# heavy 1: not shown
# heavy 2: EIVLTQSPATLSLSPGERVTMSCSASSSVSYMHWYQQKPGQAPRLWIYDTSKLASGVPARFSGSGSGTDYTLTISSVEPEDNAVYYCQQWSGHPLTFGQGTKVEIKGGGGSGGGGSGGGGSGGGGSQVQLVQSGAEVKKPGASVKISCKASGYSFTGYTMNWVRQAPGQGLEWIGLITPYSGASSYAQKFQGRATLTVDKSTSTAYMELSSLRSEDTAVYYCARGGYDGRGFDYWGQGTNVTVSSAAEPKSSDKTHTCPPCPAPEAAGGPSVFLFPPKPKDTLMISRTPEVTCVVVSVSHEDPEVKFNWYVDGVEVHNAKTKPREEQYNSTYRVVSVLTVLHQDWLNGKEYKCKVSNKALPAPIEKTISKAKGQPREPQVYVLPPSRDELTKNQVSLLCLVKGFYPSDIAVEWESNGQPENNYLTWPPVLDSDGSFFLYSKLTVDKSRWQQGNVFSCSVMHEALHNHYTQKSLSLSPG
# light: DIQMTQSPSSLSASVGDRVTITCRASESVEYYVTSLMQWYQQKPGKAPKLLIYAASNVDSGVPSRFSGSGSGTDFTLTISSLQPEDIATYYCQQSRKVPFTFGGGTKVEIKRTVAAPSVFIFPPSDEQLKSGTASVVCLLNNFYPREAKVQWKVDNALQSGNSQESVTEQDSKDSTYSLSSTLTLSKADYEKHKVYACEVTHQGLSSPVTKSFNRGEC
# notes: CD3 scFv on N-terminus of CD28 Fab; MSLN scFv-Fc; Het Fc, FcKO; also called CD3xCD28xMSLN trispecific
# B2: v34914 (trispecific antibody, human IgG1, lambda, L234A L235A)
# heavy 1: not shown
# heavy 2: B1 heavy 2
# light: NFMLTQPHSVSESPGKTVTISCKRNTGNIGSNYVNWYQQHEGSSPTTIIYRNDKRPDGVSDRFSGSIDRSSKSASLTISNLKTEDEADYFCQSYSSGFIFGGGTKLTVLGQPKAAPSVTLFPPSSEELQANKATLVCLISDFYPGAVTVAWKADSSPVKAGVETTTPSKQSNNKYAASSYLSLTPEQWKSHRSYSCQVTHEGSTVEKTVAPTECS
# notes: Het Fc, FcKO; also called CD28xCD3xMSLN trispecific
# B3: v34916 (trispecific antibody, human IgG1, lambda, L234A L235A)
# heavy 1: not shown
# heavy 2: B1 heavy 2
# light: NFMLTQPHSVSESPGKTVTISCKRNTGNIGSNYVNWYQQHEGSSPTTIIYRNDKRPDGVSDRFSGSIDRSSKSASLTISNLKTEDEADYFCQSYSSGFIFGGGTKLTVLGQPKAAPSVTLFPPSSEELQANKATLVCLISDFYPGAVTVAWKADSSPVKAGVETTTPSKQSNNKYAASSYLSLTPEQWKSHRSYSCQVTHEGSTVEKTVAPTECSGGGGSGDIQMTQSPSSLSASVGDRVTITCRASESVEYYVTSLMQWYQQKPGKAPKLLIYAASNVDSGVPSRFSGSGSGTDFTLTISSLQPEDIATYYCQQSRKVPFTFGGGTKVEIKGGGGSGGGGSGGGGSGGGGSQVQLQESGPGLVKPSETLSLTCAVSGFSLTSYGVHWIRQPPGKGLEWLGVIWPGGGTNFNSALMSRLTISEDTSKNQVSLKLSSVTAADTAVYYCARDRAYGNYLYAMDYWGQGTLVTVSS
# notes: CD28 scFv on C-terminus of the CD3 Fab light chain; Het Fc, FcKO; also called CD3xCD28xMSLN trispecific
# B4: v34919 (bispecific antibody, human IgG1, lambda, L234A L235A)
# heavy 1: not shown
# heavy 2: B1 heavy 2
# light: B2 light
# notes: MSLN VL-VH scFv); also called anti-(MSLNxCD3) bispecific control
# B5: v34917 (trispecific antibody, human IgG1, lambda, L234A L235A)
# heavy 1: EVQLVESGGGLVQPGGSLRLSCAASGVTFNYYGMSWIRQAPGKGLEWVASITSSGGRIYYPDSVKGRFTISRENTQKTLYLQMNSLRAEDTAVYYCTLDGRDGWVAYWGQGTLVTVSSASTKGPSVFPLAPSSKSTSGGTAALGCLVKDYFPEPVTVSWNSGALTSGVHTFPAVLQSSGLYSLSSVVTVPSSSLGTQTYICNVNHKPSNTKVDKKVEPKSCDKTHTCPPCPAPEAAGGPSVFLFPPKPKDTLMISRTPEVTCVVVSVSHEDPEVKFNWYVDGVEVHNAKTKPREEQYNSTYRVVSVLTVLHQDWLNGKEYKCKVSNKALPAPIEKTISKAKGQPREPQVYVYPPSRDELTKNQVSLTCLVKGFYPSDIAVEWESNGQPENNYKTTPPVLDSDGSFALVSKLTVDKSRWQQGNVFSCSVMHEALHNHYTQKSLSLSPGGGGGSGDIQMTQSPSSLSASVGDRVTITCRASESVEYYVTSLMQWYQQKPGKAPKLLIYAASNVDSGVPSRFSGSGSGTDFTLTISSLQPEDIATYYCQQSRKVPFTFGGGTKVEIKGGGGSGGGGSGGGGSGGGGSQVQLQESGPGLVKPSETLSLTCAVSGFSLTSYGVHWIRQPPGKGLEWLGVIWPGGGTNFNSALMSRLTISEDTSKNQVSLKLSSVTAADTAVYYCARDRAYGNYLYAMDYWGQGTLVTVSS
# heavy 2: B1 heavy 2
# light: B2 light
# notes: as for B2
# B6: v34927 (bispecific antibody, human IgG1, kappa, L234A L235A)
# heavy 1: not shown
# heavy 2: B1 heavy 2
# light: B1 light
# notes: MSLN VL-VH scFv); also called anti-(MSLNxCD28) bispecific control
# B7: v37689 (trispecific antibody, human IgG1, kappa, L234A L235A)
# heavy 1: not shown
# heavy 2: QVQLVESGGGLVQPGGSLRLSCSVSGIDLSSNPMIWVRQAPGKGLQYIGIIDTDGSTYYADWAKGRFTISKDSTTVYLQINSPRAEDTAVYYCARRLHGSSNGYYDDLWGQGTLVTVSSGGGGSGGGGSGGGGSGGGGSDGQMTQSPSSVSASVGDRVTITCQASQSIYSYLSWYQQKPGQRPKLLIYKASTLASGVPSRFSGSGSGTDFTLTISSVQPEDFATYYCQQGYTVTNVDKNTFGGGTKVEIKAAEPKSSDKTHTCPPCPAPEAAGGPSVFLFPPKPKDTLMISRTPEVTCVVVSVSHEDPEVKFNWYVDGVEVHNAKTKPREEQYNSTYRVVSVLTVLHQDWLNGKEYKCKVSNKALPAPIEKTISKAKGQPREPQVYVLPPSRDELTKNQVSLLCLVKGFYPSDIAVEWESNGQPENNYLTWPPVLDSDGSFFLYSKLTVDKSRWQQGNVFSCSVMHEALHNHYTQKSLSLSPG
# light: B1 light
# notes: also called v37638 format, CD28 VH N1111aA
# B8: v37693 (trispecific antibody, human IgG1, kappa, L234A L235A)
# heavy 1: not shown
# heavy 2: B7 heavy 2
# light: B1 light
# notes: also called v37638 format, CD28 VH Y1037A
# B9: v37691 (trispecific antibody, human IgG1, kappa, L234A L235A)
# heavy 1: not shown
# heavy 2: B7 heavy 2
# light: B1 light
# notes: also called v37638 format, CD28 VH L1112aN
# B10: v37695 (trispecific antibody, human IgG1, kappa, L234A L235A)
# heavy 1: not shown
# heavy 2: B7 heavy 2
# light: B1 light with N57A
# notes: also called v37638 format, CD28 VL N1066A
# B11: v37692 (trispecific antibody, human IgG1, kappa, L234A L235A)
# heavy 1: not shown
# heavy 2: B7 heavy 2
# light: B1 light
# notes: also called v37638 format, CD28 VH Y1113S
# Target: T1, Recombinant human CD3 epsilon/delta heterodimer, his tag protein (Acro Biosystems) (human, UniProt P07766 23-126; P04234 22-105)
# T1 construct: bought
# Experiment: SPR Biacore T200, CD3 e/d-his on CM5, construct injected, 1:1 model;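 further: measured at 25 °C in HEPES-buffered saline with EDTA and Tween 20 at pH 7.4, values are means of three independent runs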
Binder,Kd [nM],koff [s⁻¹],kon [M⁻¹ s⁻¹]
B1,41.6,0.0112,270000
B2,81.1,0.0191,237000
B3,37.2,0.0104,291000
B4,50.4,0.0131,267000
B5,40.8,0.0177,444000

# Target: T2, Recombinant MSLN his tag protein (R&D systems) (UniProt Q13421 296-580, limits assumed)
# T2 construct: his tag; also called mesothelin
# Experiment: SPR Biacore T200, MSLN-his on CM5, construct flowed, 1:1 model
Binder,Kd [nM],koff [s⁻¹],kon [M⁻¹ s⁻¹]
B1,6.49,0.00212,340000
B6,6.86,0.00187,270000
B2,5.39,0.00197,374000
B3,4.78,0.00181,388000
B4,4.16,0.00181,458000
B5,4.96,0.00199,411000

# Target: T3, Recombinant human/cynomolgus/rhesus macaque CD28 mouse IgG2a Fc fusion protein (Acro Biosystems) (human/cynomolgus/rhesus macaque, UniProt P10747 19-152)
# T3 construct: bought; also called huCD28
# Experiment: SPR Biacore T200, CD28-mIgG2a Fc on CM5, construct injected, 1:1 model;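 further: fc fusion captured by amine coupling, run at 25 °C in HEPES buffer pH 7.4, association 140-500 s then dissociation 600-1200 s, values averaged over three independent runs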
Binder,Kd [nM],koff [s⁻¹],kon [M⁻¹ s⁻¹]
B1,45.8,0.00216,47400
B6,50.7,0.00258,50900
B2,122,0.00849,70200
B3,56.5,0.000546,13000
B5,373,0.00209,8240

# Target: T4, CD28 on primary human T cells (human, UniProt P10747 19-220)
# Experiment: cell-based or functional assay
Binder,"IL-2 maximum cytokine, T cells alone [pg/mL]","IL-2 maximum cytokine, T cells with SNU 601 cells [pg/mL]","TNFa maximum cytokine, T cells alone [pg/mL]","TNFa maximum cytokine, T cells with SNU 601 cells [pg/mL]"
B7,677,3210,58.9,543
B8,104,3600,19.7,453
B9,185,3360,33.6,473
B10,28.9,3470,13,404
B11,120,2890,20.2,476

# Target: T4, CD28 on primary human T cells
# Experiment: cell-based or functional assay
# Remark: another data set of the same source
Binder,"IC50, T cell-dependent cytotoxicity on SNU 601 [pM]","Maximum Killing (%), SNU 601 [%]"
B7,0.12,93.4
B8,0.13,95.3
B9,0.08,91
B10,0.04,89.1
B11,0.63,91.5

# Target: T3, Recombinant human/cynomolgus/rhesus …
# Experiment: SPR, in-format anti-CD28 variants, huCD28
Binder,Fold-change from WT [fold],Kd [nM],koff [s⁻¹],kon [M⁻¹ s⁻¹]
B7,10.8,239,0.0211,89600
B8,4.1,91.8,0.00968,106000
B9,4.9,109,0.0107,98600
B10,1.3,27.7,0.00266,95100
B11,95.1,2110,0.0613,32200

# — patent US20260028403A1 (Zymeworks, published 2026)
